The source of these data is patent US20050249738A1.

The experiment addresses CD22 on human B cells (human) (UniProt P20273). The experiment is described as follows: cell-based or functional assay.
UniProt P20273, sequence (P20273 20-847): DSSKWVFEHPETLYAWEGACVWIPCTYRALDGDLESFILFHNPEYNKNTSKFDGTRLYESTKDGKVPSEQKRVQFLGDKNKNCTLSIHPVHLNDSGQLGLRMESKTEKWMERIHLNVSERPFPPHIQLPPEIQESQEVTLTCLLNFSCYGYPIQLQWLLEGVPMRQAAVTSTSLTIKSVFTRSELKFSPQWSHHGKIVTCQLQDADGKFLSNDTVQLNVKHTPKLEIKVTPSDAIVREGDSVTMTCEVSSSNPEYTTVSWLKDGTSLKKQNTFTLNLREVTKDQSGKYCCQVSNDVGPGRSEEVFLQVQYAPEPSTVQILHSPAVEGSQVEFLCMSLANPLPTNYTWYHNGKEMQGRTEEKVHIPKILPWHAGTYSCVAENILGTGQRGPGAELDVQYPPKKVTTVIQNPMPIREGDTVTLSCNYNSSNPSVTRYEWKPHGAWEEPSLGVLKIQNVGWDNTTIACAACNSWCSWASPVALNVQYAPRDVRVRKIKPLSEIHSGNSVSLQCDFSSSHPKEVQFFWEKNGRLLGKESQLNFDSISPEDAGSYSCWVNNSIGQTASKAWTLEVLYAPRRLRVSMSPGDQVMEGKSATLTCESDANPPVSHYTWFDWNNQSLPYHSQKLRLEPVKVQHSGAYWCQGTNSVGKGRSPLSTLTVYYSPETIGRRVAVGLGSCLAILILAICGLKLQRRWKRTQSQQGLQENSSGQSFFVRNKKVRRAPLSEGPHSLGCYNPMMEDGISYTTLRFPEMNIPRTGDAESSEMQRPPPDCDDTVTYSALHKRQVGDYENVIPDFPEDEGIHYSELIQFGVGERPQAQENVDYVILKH

For LL2-ONCONASE® immunotoxin, the IC50 of protein synthesis inhibition, CA 46 cells, 24 h was 0.8 nM; the IC50 of protein synthesis inhibition, Daudi cells, 24 h was determined as 0.1 nM; the IC50 of protein synthesis inhibition, Raji cells, 24 h amounted to 0.8 nM.
